Measurements taken from US20120121608A1 (CALIFORNIA INSTITUTE OF TECHNOLOGY, published 2012).

B3: Sam68, endogenous, in mouse embryonic fibroblasts (MEF) (other, UniProt Q60749 1-443, looked up)
chain: MQRRDDPASRLTRSSGRSCSKDPSGAHPSVRLTPSRPSPLPHRPRGGGGGPRGGARASPATQPPPLLPPSTPGPDATVVGSAPTPLLPPSATAAVKMEPENKYLPELMAEKDSLDPSFTHAMQLLSVEIEKIQKGESKKDDEENYLDLFSHKNMKLKERVLIPVKQYPKFNFVGKILGPQGNTIKRLQEETGAKISVLGKGSMRDKAKEEELRKGGDPKYAHLNMDLHVFIEVFGPPCEAYALMAHAMEEVKKFLVPDMMDDICQEQFLELSYLNGVPEPSRGRGVSVRGRGAAPPPPPVPRGRGVGPPRGALVRGTPVRGSITRGATVTRGVPPPPTVRGAPTPRARTAGIQRIPLPPTPAPETYEDYGYDDTYAEQSYEGYEGYYSQSQGESEYYDYGHGELQDSYEAYGQDDWNGTRPSLKAPPARPVKGAYREHPYGRY
notes: also called KHDRBS1

Key:
[1] = target: T1, Sam68, endogenous, in human cells (HeLa, 293T) (human, UniProt Q07666 1-443); assay: immunoprecipitation of TNFR with anti-TNFR antibody from HeLa cells, immunoblot (FIG. 9E)
T1 construct: also called endogenous Sam68
Experimental: (§1) 20-25×10⁶ control and treated cells were lysed in a rotator at 4° C. for 30 minutes in the lysis buffer (1.0% Triton-X100, 20 mM HEPES (pH 7.6), 150 mM NaCl, 1 mM EDTA, 10% glycerol and complete protease inhibitor cocktail). The immunoprecipitates were washed thrice with the lysis buffer and boiled with LDS sample buffer (Invitrogen). Samples with the endogenous protein complexes were resolved in Novex 4-12% Bis-Tris gels (Invitrogen) and transferred to nitrocellulose membrane, probed using relevant antibodies and detected using the SuperSignal West Pico or West Femto Chemiluminescent Substrate System (Pierce). Detection of proteins in the immunoprecipitates with molecular weight close to the denatured heavy and light chains of immunoglobulins (50 kDa and 25 kDa respectively) was performed using native IgG detection reagent (Pierce). […] Additionally, membrane fractionation was performed on cells treated with TNF.

[2] = target: B3; assay: immunoprecipitation of endogenous Sam68 from MEF cells, immunoblot for TNFR (FIG. 10)
Experimental: as §1

[3] = target: T2, RIP, endogenous, in mouse embryonic fibroblasts (mouse, UniProt Q60855 1-656); assay: immunoprecipitation of Sam68 from TNF-treated MEF cells, probed for RIP (FIG. 15E)
T2 sequence (looked up): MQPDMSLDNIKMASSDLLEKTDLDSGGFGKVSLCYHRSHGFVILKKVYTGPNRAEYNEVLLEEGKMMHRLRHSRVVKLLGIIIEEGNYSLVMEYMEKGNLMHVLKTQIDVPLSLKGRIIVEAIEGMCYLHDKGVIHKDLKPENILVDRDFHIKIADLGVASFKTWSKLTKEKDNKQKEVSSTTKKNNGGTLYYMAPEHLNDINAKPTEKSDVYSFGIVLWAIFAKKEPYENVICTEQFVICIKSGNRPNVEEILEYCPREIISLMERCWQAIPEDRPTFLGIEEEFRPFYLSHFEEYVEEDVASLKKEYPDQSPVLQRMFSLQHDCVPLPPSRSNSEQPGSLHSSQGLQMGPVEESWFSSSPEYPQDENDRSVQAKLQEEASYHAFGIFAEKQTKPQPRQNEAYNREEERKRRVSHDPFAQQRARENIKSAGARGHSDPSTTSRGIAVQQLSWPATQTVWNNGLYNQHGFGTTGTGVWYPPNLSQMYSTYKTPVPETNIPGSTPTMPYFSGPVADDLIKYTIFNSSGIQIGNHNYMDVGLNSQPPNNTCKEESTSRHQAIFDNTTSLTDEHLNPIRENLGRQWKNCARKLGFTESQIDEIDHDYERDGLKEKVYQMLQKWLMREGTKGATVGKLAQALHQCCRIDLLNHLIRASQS

B1: TNF receptor, endogenous, in HeLa cells (receptor, human, UniProt P19438 30-455, looked up)
chain: LVPHLGDREKRDSVCPQGKYIHPQNNSICCTKCHKGTYLYNDCPGPGQDTDCRECESGSFTASENHLRHCLSCSKCRKEMGQVEISSCTVDRDTVCGCRKNQYRHYWSENLFQCFNCSLCLNGTVHLSCQEKQNTVCTCHAGFFLRENECVSCSNCKKSLECTKLCLPQIENVKGTEDSGTTVLLPLVIFFGLCLLSLLFIGLMYRYQRWKSKLYSIVCGKSTPEKEGELEGTTTKPLAPNPSFSPTPGFTPTLGFSPVPSSTFTSSSTYTPGDCPNFAAPRREVAPPYQGADPILATALASDPIPNPLQKWEDSAHKPQSLDTDDPATLYAVVENVPPLRWKEFVRRLGLSDHEIDRLELQNGRCLREAQYSMLATWRRRTPRREATLELLGRVLRDMDLLGCLEDIEEALCGPAALPPAPSLLR
B1: binds [1].

B2: TNF receptor, endogenous, in mouse embryonic fibroblasts (MEF) (receptor, UniProt P25118 30-454, looked up)
chain: LVPSLGDREKRDSLCPQGKYVHSKNNSICCTKCHKGTYLVSDCPSPGRDTVCRECEKGTFTASQNYLRQCLSCKTCRKEMSQVEISPCQADKDTVCGCKENQFQRYLSETHFQCVDCSPCFNGTVTIPCKETQNTVCNCHAGFFLRESECVPCSHCKKNEECMKLCLPPPLANVTNPQDSGTAVLLPLVILLGLCLLSFIFISLMCRYPRWRPEVYSIICRDPVPVKEEKAGKPLTPAPSPAFSPTSGFNPTLGFSTPGFSSPVSSTPISPIFGPSNWHFMPPVSEVVPTQGADPLLYESLCSVPAPTSVQKWEDSAHPQRPDNADLAILYAVVDGVPPARWKEFMRFMGLSEHEIERLEMQNGRCLREAQYSMLEAWRRRTPRHEDTLEVVGLVLSKMNLAGCLENILEALRNPAPSSTTRLPR
notes: also called TNF receptor complex
B2: binds [2].

B3: binds [3].
